The RNAGym collection of RNA variant scans (doi:10.7554/elife.80360)

B1: HDV Ribozyme (parent)
chain: GGCCGGCAUGGUCCCAGCCUCCUCGCUGGCGCCGGCUGGGCAACAUUCCGAGGGGACCGUCCCCUCGGUAAUGGCGAAUGGGACCCA

Variants of: B1
Assay: self-cleavage, relative activity (ratio to wild type); higher = more cleavage; co-transcriptional

**Q.** Which self-cleavage does the source give for GGCCGGCAUGAUCCCAGCCUCCUCGCUGGCGCCGGCUGGGCAACAUUCCGAGCGGACCGUCCCCUCGGUAAUGGCGAAUGGGACCCA [G11A G53C] here?
**A.** 0.372

**Q.** For GGCCGGCAUGGUCCGAGCCUCCUCGCUGGCGCCGGCUGGGCAACAUUCCGAGGGGACCGUCCCCUCGGUAAUGGCGAAUGUGACCCA [C15G G81U], which self-cleavage is on record?
**A.** 0.297

**Q.** For GGCCGGCAUGGUCCCAGCCUCCUCGCUGGCGCCGGCUGGGCAACAUUCCGAGGGGACCGUCCCGUCGGUAAUGGGGAAUGGGACCCA [C64G C75G], which self-cleavage is on record?
**A.** 0

**Q.** For GGCCGACAUGGUCCCAGCCUCCUCGCUGGCGCCGGCUGGGCAACAUUCCGAGGGGACCGACCCCUCGGUAAUGGCGAAUGGGACCCA [G6A U60A], which self-cleavage is on record?
**A.** 0.811

**Q.** For GGCCGGCAUGGUCCCAGCCUCCUCGCUGGCGCCGGCUGGGCAACGUUCCGAGGGGACCGUCCCCUCGGUAACGGCGAAUGGGACCCA [A45G U72C], which self-cleavage is on record?
**A.** 0.87

**Q.** Which self-cleavage does the source give for GGCCUGCAUGGUCCCAGCCUCCUCGCUGGCGCCGGCUGGGCAACAUUCCGCGGGGACCGUCCCCUCGGUAAUGGCGAAUGGGACCCA [G5U A51C] here?
**A.** 0.277

**Q.** With GGCCUGCAUGGUCCCAGCCUCCUCGCUGGCGCCGGCUGGGCAACAUUCCGAGGGGACCGUCCCCUCGGUAAUGGCGAAUGUGACCCA [G5U G81U] as the variant, how does the self-cleavage read?
**A.** 0.166

**Q.** For GGCCGGCAUGGUCCCAGCCUCCUCGCUGGAGCCGGCUGGGCAACAUUCCGAGGGGACCGUCCCCUCGGCAAUGGCGAAUGGGACCCA [C30A U69C], which self-cleavage is on record?
**A.** 0.623

**Q.** For GGCCGGCAUGGUCCCAGCCUCCUCGCUGGCGCCGGCUGGGCAACAUUUCGAGGGGACCGUCCCCUCGGUAAUGGCGAAUGGGACCCA [C48U], which self-cleavage is on record?
**A.** 1.01

**Q.** For GGCCGGCAUGGUCCCAGCCUCCUCGCUGGCGCCGGCUGGGCAACCUUCCGAGGGGACCGUCCCCUCGGUAAUGGCGAAUUGGACCCA [A45C G80U], which self-cleavage is on record?
**A.** 0.0678

**Q.** Which self-cleavage does the source give for GGCCGGCAUGGUCCCAGCCUCCUCGCUGGCGACGGCUGGGCAACAUUCCGAGGGGACCGUGCCCUCGGUAAUGGCGAAUGGGACCCA [C32A C61G] here?
**A.** 0.248

**Q.** For GGCCGGCAUGGACCCAGCCUCCUCGCUGGCGCCGGCUGGGCAACAUUCAGAGGGGACCGUCCCCUCGGUAAUGGCGAAUGGGACCCA [U12A C49A], which self-cleavage is on record?
**A.** 0.128

**Q.** Which self-cleavage does the source give for GGCCGGCAUGGUCCCAGCCUCCUCGCUGGCGCCGGCUGGGCAACAUUCCGAGGGGACCUUCCCCUCGGUAAUGGCGAAUGUGACCCA [G59U G81U] here?
**A.** 0.433

**Q.** With GGCCGGCAUGGUCCCAGCCUCCUCGCUGGCGCAGGCUGGGCAACAUUCCGAGGGGACCGUCCCCUCGGUAAUGUCGAAUGGGACCCA [C33A G74U] as the variant, how does the self-cleavage read?
**A.** 0.0755

**Q.** With GGCCGGCAUGGUCCCAGCCUCCUCGCUGGCGCCGGCUGGUCAACAUUCCGAGGGGACCGUCCCCUCGGUAAUGGGGAAUGGGACCCA [G40U C75G] as the variant, how does the self-cleavage read?
**A.** 0.166

**Q.** For GGCCGGAAUCGUCCCAGCCUCCUCGCUGGCGCCGGCUGGGCAACAUUCCGAGGGGACCGUCCCCUCGGUAAUGGCGAAUGGGACCCA [C7A G10C], which self-cleavage is on record?
**A.** 0.201

**Q.** Which self-cleavage does the source give for GGCCGGCAUGGUCCCAGCCUCCCCGCUGGCGCCGGCUGGGCAACAUCCCGAGGGGACCGUCCCCUCGGUAAUGGCGAAUGGGACCCA [U23C U47C] here?
**A.** 1.04

**Q.** Which self-cleavage does the source give for GGCCGGCAUGGUCCCAGCCUCUUCGCUGGCGCCGGCUGGGCAACAUUCCGAGGGGACCGUCCCCUCGGUAAUGGCUAAUGGGACCCA [C22U G76U] here?
**A.** 0.794

**Q.** Which self-cleavage does the source give for GGCCGGCAUGGUCCCAGCCUCCUCGCUGGCGCCGGCUGGGCAACUCUCCGAGGGGACCGUCCCCUCGGUAAUGGCGAAUGGGACCCA [A45U U46C] here?
**A.** 0.665

**Q.** For GGACGGCAUGGUCCCAGCCUCCUCGCUGGCGCCGGCUGGGCAACAUUCCGAGGGGACCGACCCCUCGGUAAUGGCGAAUGGGACCCA [C3A U60A], which self-cleavage is on record?
**A.** 0.611

**Q.** With GGCCGGCAUGGUCCCAGCCUCCUCGCUGACGCCGGCUGGGCAACAUUCCGAGGGGACCCUCCCCUCGGUAAUGGCGAAUGGGACCCA [G29A G59C] as the variant, how does the self-cleavage read?
**A.** 0.123

**Q.** With CGCCGGCAUGGUCUCAGCCUCCUCGCUGGCGCCGGCUGGGCAACAUUCCGAGGGGACCGUCCCCUCGGUAAUGGCGAAUGGGACCCA [G1C C14U] as the variant, how does the self-cleavage read?
**A.** 0.213

**Q.** With GGCCGGCAUGGUACCAGCCUCCUCGCUGGCGCCGGCUGGGCAACAUUCCGAGGGGACCGUCCCCUCGGUGAUGGCGAAUGGGACCCA [C13A A70G] as the variant, how does the self-cleavage read?
**A.** 0.166

**Q.** For GGCCGGCAUGGUCCCAGCCUCCUCGCUGGCCCCGGCUGGACAACAUUCCGAGGGGACCGUCCCCUCGGUAAUGGCGAAUGGGACCCA [G31C G40A], which self-cleavage is on record?
**A.** 0.406

**Q.** For GGCCGGCAUGGUCCCAGCCUCCUCGCUGGCGCCGGCUGUGCAACAUUCCGAGGGGACCGUCCCCACGGUAAUGGCGAAUGGGACCCA [G39U U65A], which self-cleavage is on record?
**A.** 0.627

**Q.** With GGCCGGCAUGGUCCCAGCCUCCUCGCUGGCGCCGGCUGGGCAACAUUCCGAGGGGACGGUCCCCUCGGUAAUGGCGAAUCGGACCCA [C58G G80C] as the variant, how does the self-cleavage read?
**A.** 0.147

**Q.** With GGCCGGCAUGGUCCCAGCCUCCUCGCUGGCGCCGGCUGGGCAACAUUCCUAGGGGACCGUCCCCUCGUUAAUGGCGAAUGGGACCCA [G50U G68U] as the variant, how does the self-cleavage read?
**A.** 0.576

**Q.** For GGCCGGCAUGGUCCCAGCCUCCUCACUGGCGUCGGCUGGGCAACAUUCCGAGGGGACCGUCCCCUCGGUAAUGGCGAAUGGGACCCA [G25A C32U], which self-cleavage is on record?
**A.** 0.169

**Q.** For UGCCGGCAUGGUCCCAGCCUCCUCGCUGGCGCCGUCUGGGCAACAUUCCGAGGGGACCGUCCCCUCGGUAAUGGCGAAUGGGACCCA [G1U G35U], which self-cleavage is on record?
**A.** 0.288

**Q.** Which self-cleavage does the source give for GGCCGGCAUGGUCCCAGCCUCCUCGCUGGCGCCGGCUGGGCAACAAUCCGAGGGGACCGUCCCCUCGGUAAUGGCGAAUGCGACCCA [U46A G81C] here?
**A.** 0.312

**Q.** With GGCCGGUAUGGUCCCAGCCUCCUCGCUGGCGCCGGCUGGGCAACAUUCCGAGGGGACCGUCCCCUCGGUAAUGGCGAAUGGGACCCU [C7U A87U] as the variant, how does the self-cleavage read?
**A.** 0.938

**Q.** With GGCCGGCAUGGUCCCAGACUCCUCGCUGGCGCCGGCUAGGCAACAUUCCGAGGGGACCGUCCCCUCGGUAAUGGCGAAUGGGACCCA [C18A G38A] as the variant, how does the self-cleavage read?
**A.** 0.113
